We go through three molecules from patent EP3265123B1 (Kymab Limited, dated 2022).

In experiment [1] the target is T1, Recombinant Human OX40L (Leader sequence, Isoleucine Zipper and FLAG Sequence Included) (human).
T1 construct: In-house construct: extracellular domain of human OX40L with a FLAG motif and an isoleucine zipper to aid trimerisation; It was used biotinylated in the HTRF assays and unlabelled in SPR and the T-cell assay; also called hOX40L; biotinylated OX40L
Put plainly: SPR (ProteOn XPR36), antibody captured on anti-mouse IgG, OX40L at 256 nM, 1:1 model, apparent affinity, 25 C.

Experiment [2] has as its target T1, Recombinant Human OX40L (Leader …). In words: cell-based or functional assay.
Experiment [3] has the same target. In words: HTRF ligand/receptor neutralisation, biotinylated hOX40L with OX40RFc-AF647 as competitor; mean of three experiments.

T1 sequence (chain, as listed by the source limits assumed): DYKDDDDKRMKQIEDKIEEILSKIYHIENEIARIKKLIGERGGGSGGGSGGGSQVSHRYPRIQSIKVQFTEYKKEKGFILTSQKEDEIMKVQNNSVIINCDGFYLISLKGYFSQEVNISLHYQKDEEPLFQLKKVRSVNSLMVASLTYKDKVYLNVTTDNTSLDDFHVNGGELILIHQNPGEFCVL

B1: 19H01 (hybridoma) (antibody, V domains shown)
VH: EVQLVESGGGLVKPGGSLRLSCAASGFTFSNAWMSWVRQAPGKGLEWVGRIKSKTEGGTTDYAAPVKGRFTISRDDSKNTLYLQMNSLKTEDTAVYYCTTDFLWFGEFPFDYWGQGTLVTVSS
VL: DIQMTQSPSSLSASVGDRVTITCRASQGISNYLAWYQQKPGKIPKLLIYAASTLQSGVPSRFSGSGSGTDFTLTISSLQPEDVATYYCQKYNSAPRTFGQGTKVEIK
notes: Purified from hybridoma supernatant as a murine/human chimeric antibody (human variable domains, mouse constant regions)
As to B1, the Kd in experiment [1] was 2.2 nM.

B2: 9H04 (hybridoma) (antibody, V domains shown)
VH: QVQLVESGGGLVKPGGSLRLSCAASRFTLSDYYMTWIRQAPGKGLEWVSYISSSGNTIYYADSVKGRFTISRDNAKNSLYLQMNSLRAEDTAVYYCARDLSGSYWDYYYGMDVWGQGTTVTVSS
VL: AIQLTQSPSSLSTSVGDRVTIACRASQGINNALAWYQQKPGKAPKLLIYDASSLESGVPSRFSGSGSGTDFTLTISSLQPEDFATYYCQQFNSYPRTFGQGTKVEIK
notes: Purified from hybridoma supernatant as a murine/human chimeric antibody (human variable domains, mouse constant regions); also called 09H04
In the case of B2, in experiment [1], the Kd stood at 5.3 nM.

B3: 2D10 (human) (antibody, human IgG4 S228P, kappa, V domains shown)
VH: EVQLVESGGGLVQPGGSLRLSCAASGFTFSNYAMNWVRQAPGKGLEWVSTISGSGGATRYADSVKGRFTISRDNSRNTVYLQMNSLRVEDTAVFYCTKDRLIMATVRGPYYYGMDVWGQGTTVTVSS
VL: DIQMTQSPSSLSASVGDRVTITCRASQSISSYLNWYQQKPGKAPNLLIYAASSLQSGVPSRFSGSGSETDFTLTISSLQPEDFATYYCQQSHSVSFTFGPGTKVDIKR
notes: Fully human recombinant IgG4-PE (Ser228Pro, Leu235Glu) with human kappa light chain, expressed in CHO-S; also called 02D10; 2D10 IgG4PE
By IC50 is commonly meant the concentration at which inhibition is half-maximal. For B3, the “Primary T-cell Assay IC50 (recombinant OX40L induced IL2 release from primary human T-cells)” value in experiment [2] was determined as 0.81 nM. Moreover, in experiment [3], the IC50 stood at 0.75 nM.
